Assays:
[1] = target: T1, Japanese eel (Anguilla japonica) UnaG, wild type, SEQ ID NO: 1 (Anguilla japonica, UniProt P0DM59); experiment: Dissociation constant by bilirubin titration of apo UnaG (fluorescence at 527 nm, curve fitting); assay type: binding; conditions: wild-type apo UnaG 5 nM, titrated with bilirubin to 10 nM
T1 construct: GST (N, cleaved yes); made in house; host or cells: Escherichia coli BL21 (DE3)
Source text: The capacity of binding to bilirubin can be evaluated through calculation of dissociation constant (Kd) by curve-fitting of correlation between the amount of bilirubin and the fluorescence intensity of UnaG protein. In one instance, “reduced capacity of binding to bilirubin compared to UnaG” means that the dissociation constant, Kd, is larger than that of UnaG.
The dissociation constant can be calculated by a known method, for example, by the following computation expression: Y=[Kd+Bt+Pt−{(Kd+Bt+Pt}^1/2]/(2×Pt) where Y represents the degree of binding of bilirubin (fluorescence intensity); Kd represents the dissociation constant; Bt represents the concentration of bilirubin; and Pt represents the concentration (5 nM) of apo UnaG protein.
(§1) An apo UnaG protein solution having an apo UnaG protein concentration of 5 nM was titrated with bilirubin to give a final concentration of bilirubin of 10 nM, and the fluorescence spectrum was measured with a fluorescence spectrophotometer.
Apo A12ES80N mutant protein was titrated with bilirubin, and the fluorescence intensity was measured with a spectrophotofluorometer F-2500 (Hitachi High-Technologies Corporation). The results were plotted. Data analysis and fitting with graph plotting software Origin (OriginLab Corporation) were performed to determine the dissociation constant (Kd). […]

[2] = target: T1, Japanese eel (Anguilla japonica) UnaG, wild type, SEQ ID NO: 1; experiment: Fluorescence of apo UnaG reconstructed with bilirubin or bilirubin analogs (ligand specificity); assay type: biochemical; conditions: apo UnaG 0.5 μM; ligand 0.125-2.0 μM; room temperature 30 min; excitation 497 nm, fluorescence 527 nm
Procedure: FIG. 5 is a graph showing specificity of UnaG protein in Example of the present invention to unconjugated bilirubin. Apo UnaG (0.5 μM) was mixed with a ligand: bilirubin (unconjugated) at various concentrations or a bilirubin analog, biliverdin, urobilin, or ditaurobilirubin, at various concentrations, and the fluorescence intensity at each concentration was measured. The vertical axis indicates fluorescence intensity, and the horizontal axis indicates concentration (μM) of each ligand.
Bilirubin or a bilirubin analog, biliverdin (Toronto Research Chemicals), urobilin (MP Biomedicals), or ditaurobilirubin (Frontier Scientific), was diluted with PBS such that the final concentration was 0.125 μM, 0.25 μM, 0.5 μM, 1.0 μM, or 2.0 μM and was mixed with 0.5 μM apo UnaG protein. The mixture was left to stand at room temperature for 30 min. Subsequently, 200 μL of the mixture was added to each well of a 96 well microplate (Greiner Bio-One) and was subjected to measurement of the fluorescence intensity at a wavelength of 527 nm with excitation light having a wavelength of 497 nm using EnSpire multi-mode plate reader (PerkinElmer Co., Ltd.).

[3] = target: T2, Japanese eel (Anguilla japonica) UnaG variant A12ES80N (A12E, S80N), SEQ ID NO: 29 (Anguilla japonica, UniProt P0DM59, A12E/S80N); experiment: Dissociation constant by bilirubin titration of apo A12ES80N mutant (fluorescence, curve fitting); assay type: binding
T2 construct: made in house; host or cells: Escherichia coli JM109 (DE3)
Procedure: as §1
A DNA fragment of A12ES80N mutant was ligated into BamHI and EcoRI restriction enzyme sites of pRSETB-FLAG vector, which was Escherichia coli expression vector pcRSETB including a FLAG tag sequence (SEQ ID NO: 26) at the KpnI/BamHI restriction enzyme sites, and was transformed into Escherichia coli strain JM109 (DE3) for subcloning. […]
The bacterial cells were suspended in 5 mL of PBS, and 50 μL of lysozyme (4 mg/mL) was added thereto. […] Subsequently, His-FLAG-UnaG mutant protein was eluted by adding each 500 μL of PBS containing 300 mM imidazole to the carrier, and the elution fraction was detected by a bradford method. […] The concentration of the purified His-FLAG-UnaG mutant protein was determined by the following computation expression based on the absorbance A280. […]
Apo A12ES80N mutant protein was titrated with bilirubin, and the fluorescence intensity was measured with a spectrophotofluorometer F-2500 (Hitachi High-Technologies Corporation). […]

[4] = Evaluation of aggregability of protein by dynamic light scattering particle diameter; assay type: physicochemical
Procedure: Protein solutions (each 20 μL) of wild-type UnaG protein (10 mg/mL) and R82EK84E mutated UnaG protein (8.5 mg/mL) were each supplied to Microtrac particle size analyzer MT3000II (Nikkiso Co., Ltd.), and the particle diameters were measured by a dynamic light scattering. The aggregability was evaluated by plotting frequency against particle diameter.

[5] = Measurement of fluorescence spectrum, absorption spectrum, quantum yield and fluorescence lifetime; assay type: physicochemical
Procedure: In order to analyze the fluorescent properties of UnaG protein, the fluorescence spectrum, absorption spectrum, and quantum yield were measured. The excitation spectrum and the fluorescence spectrum were measured with a spectrophotofluorometer, RF-5300PC (Shimadzu Corporation), at an excitation wavelength of 475 nm and a fluorescence wavelength of 550 nm. The absorption spectrum was measured with a spectrophotometer, U-2900 (Hitachi High-Technologies Corporation). The quantum yield was measured with an absolute quantum yield measurement system, Quantaurus-QY (Hamamatsu Photonics K.K.) at excitation wavelengths of 470 nm and 480 nm. A known fluorescent protein, EGFP, was similarly measured, and the values were compared to those of UnaG protein.
In order to analyze the fluorescent properties of R82EK84E mutant, the fluorescence spectrum, absorption spectrum, and quantum yield were measured. The measurement was performed by the same method as that described in the above-described paragraph 3. The fluorescence lifetime was measured with a small-sized fluorescence lifetime measurement system, Quantaurus-Tau (Hamamatsu Photonics K.K.) and was compared to that of wild-type UnaG protein.
The fluorescence spectrum, absorption spectrum, and quantum yield (excitation wavelength: 470 nm) were measured for analyzing the fluorescent properties of holo A12ES80N mutant protein. The measurement was performed by the same method as that described in paragraph 3, above. The fluorescent properties were compared to those of wild-type UnaG protein.

[6] = Table 3, wild-type vs R82EK84E mutant
[7] = Table 3, wild-type vs R82EK84E mutant, holo form reconstructed with bilirubin
[8] = Table 4, wild-type vs holo A12ES80N mutant

T1 sequence (P0DM59 whole entry): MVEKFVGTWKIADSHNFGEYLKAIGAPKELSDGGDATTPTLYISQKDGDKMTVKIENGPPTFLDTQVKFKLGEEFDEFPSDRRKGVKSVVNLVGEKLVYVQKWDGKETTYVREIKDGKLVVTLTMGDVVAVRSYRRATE

C=CC1=C(C)/C(=C/c2[nH]c(Cc3[nH]c(/C=C4\NC(=O)C(C)=C4C=C)c(C)c3CCC(=O)O)c(CCC(=O)O)c2C)NC1=O [bilirubin]
Kd [1]: 98 pM
fluorescence emission of UnaG on addition of ligand [2]: the fluorescence of UnaG is specific to bilirubin
Kd [3]: 1900 pM

B1: R82EK84E mutant: UnaG with 82nd amino acid R and 84th amino acid K substituted by E; SEQ ID NO: 5 (protein, listed as Anguilla japonica)
chain: MVEKFVGTWKIADSHNFGEYLKAIGAPKELSDGGDATTPTLYISQKDGDKMTVKIENGPPTFLDTQVKFKLGEEFDEFPSDEREGVKSVVNLVGEKLVYVQKWDGKETTYVREIKDGKLVVTLTMGDVVAVRSYRRATE
dispersibility / aggregation compared to the wild-type [4]: improved dispersibility
particle diameter distribution (peaks) ([4]; wild-type 10 mg/mL, R82EK84E mutant 8.5 mg/mL): single peak
Molar extinction coefficient [5, 6]: 50,870 M^−1 cm^−1
Quantum yield [5, 6]: 61%
Maximum excitation wavelength [5, 7]: 498 nm
Maximum fluorescence wavelength [5, 7]: 527 nm
Fluorescence lifetime (τ1/ns) ([5]; Table 3, wild-type vs R82EK84E mutant, Quantaurus-Tau): 2.2 ns

B2: A12ES80N mutant: UnaG variant with substitution of A at 12th position to E and S at 80th position to N; SEQ ID NO: 29 (protein, listed as Anguilla japonica)
chain: MVEKFVGTWKIEDSHNFGEYLKAIGAPKELSDGGDATTPTLYISQKDGDKMTVKIENGPPTFLDTQVKFKLGEEFDEFPNDRRKGVKSVVNLVGEKLVYVQKWDGKETTYVREIKDGKLVVTLTMGDVVAVRSYRRATE
Maximum excitation wavelength [5, 8]: 499 nm
Maximum fluorescence wavelength [5, 8]: 527 nm
Molar extinction coefficient [5, 8]: 56,210 M^−1 cm^−1
Quantum yield ([5]; Table 4, excitation wavelength 470 nm): 46.8%

From patent US9957308B2, “Method for detecting bilirubin using a fluorescent protein” (RIKEN, priority 2013, dated 2018)
